Measurements from article PMC10679502.
Primed or numbered codes have the meaning given here. * marks the point of attachment. EDANS′ = N-[2-[(5-sulfo-1-naphthalenyl)amino]ethyl]-L-α-glutamine (donor); DABCYL = 4-((4-(dimethylamino)phenyl)azo)benzoyl (quencher); Benzoyl(2-NHMe) = CNc1ccccc1C(=O)*

Molecular target: presenilin homolog from the methanogen Methanoculleus marisnigri JR1, wild type (Methanoculleus marisnigri JR1)

Binder	Km of cleavage, FRET enzyme kinetics assay (Michaelis-Menten), in DDM, no inhibitor, 37 °C, 500 nM MCM.IAP [µM]	Km of cleavage, FRET enzyme kinetics assay (Michaelis-Menten), in bicelles (DMPC/CHAPSO) [µM]	Km of cleavage, FRET enzyme kinetics assay (Michaelis-Menten), in DDM [µM]
{EDANS′}-LVIVGLTFAV-{DABCYL} [ErbFRET EDANS-…-DABCYL]	4.9	6.3	–
{Benzoyl(2-NHMe)}-GGVVIATV-{Lys(DNP)} [C100FRET NMA-GGVVIATV-DNP]	–	2.8	7.5
